# In patent publication US20200270588A1, “GLUCOSYL TRANSFERASE POLYPEPTIDES AND METHODS OF USE” (Syngenta Participations AG, priority 2017, published 2020):
# B1: M135V: bx9 SEQ ID NO:1 mutant (protein)
# chain: MASSRTGAGAGGRVVVFPFPFQGHFNPVMRLARALHARGLAITVFHSGALDPADYPADYRFVPVTVEADPKLLASEDIAAIVTTLNASCDAPFRARLSALLAAEGRDSVRCVFTDVSWNAVLTASSDLGVPALGVMTASAASLRDYMAYRTLIDKGYLPVKEERKEDPVPELPPYLVKDLLRVDTSDLEEFAELLARTVTAARRASGLIFNTFPLIETDTLAEIHKALSVPVFAVAPLNKLVPTATASLHGVVQADRGCLQWLDTQQPGSVLYVSFGSMAAMDPHEFVELAWGLADSKRPFVWVVRPNLIRGFESGALPDGVEDEVRGRGIVVAWAPQEEVLAHPAVGGFLTHNGWNSTVEAISEGVPMVCCPRHGDQFGNMRYVCDVWKVGTELVGEQLERGQVKAAIDRLFGTKEGEEIKERMKEFKIAAAKGIGIGVDVDETASPRTDLTDLVDLIKSF
# modifications: Zea mays
# B2: A334E: bx9 SEQ ID NO:1 mutant (protein)
# chain: MASSRTGAGAGGRVVVFPFPFQGHFNPVMRLARALHARGLAITVFHSGALDPADYPADYRFVPVTVEADPKLLASEDIAAIVTTLNASCDAPFRARLSALLAAEGRDSVRCVFTDVSWNAVLTASSDLGVPALGMMTASAASLRDYMAYRTLIDKGYLPVKEERKEDPVPELPPYLVKDLLRVDTSDLEEFAELLARTVTAARRASGLIFNTFPLIETDTLAEIHKALSVPVFAVAPLNKLVPTATASLHGVVQADRGCLQWLDTQQPGSVLYVSFGSMAAMDPHEFVELAWGLADSKRPFVWVVRPNLIRGFESGALPDGVEDEVRGRGIVVEWAPQEEVLAHPAVGGFLTHNGWNSTVEAISEGVPMVCCPRHGDQFGNMRYVCDVWKVGTELVGEQLERGQVKAAIDRLFGTKEGEEIKERMKEFKIAAAKGIGIGVDVDETASPRTDLTDLVDLIKSF
# modifications: Zea mays
# B3: A334C: bx9 SEQ ID NO:1 mutant (protein)
# chain: MASSRTGAGAGGRVVVFPFPFQGHFNPVMRLARALHARGLAITVFHSGALDPADYPADYRFVPVTVEADPKLLASEDIAAIVTTLNASCDAPFRARLSALLAAEGRDSVRCVFTDVSWNAVLTASSDLGVPALGMMTASAASLRDYMAYRTLIDKGYLPVKEERKEDPVPELPPYLVKDLLRVDTSDLEEFAELLARTVTAARRASGLIFNTFPLIETDTLAEIHKALSVPVFAVAPLNKLVPTATASLHGVVQADRGCLQWLDTQQPGSVLYVSFGSMAAMDPHEFVELAWGLADSKRPFVWVVRPNLIRGFESGALPDGVEDEVRGRGIVVCWAPQEEVLAHPAVGGFLTHNGWNSTVEAISEGVPMVCCPRHGDQFGNMRYVCDVWKVGTELVGEQLERGQVKAAIDRLFGTKEGEEIKERMKEFKIAAAKGIGIGVDVDETASPRTDLTDLVDLIKSF
# modifications: Zea mays
# B4: M279W: bx9 SEQ ID NO:1 mutant (protein)
# chain: MASSRTGAGAGGRVVVFPFPFQGHFNPVMRLARALHARGLAITVFHSGALDPADYPADYRFVPVTVEADPKLLASEDIAAIVTTLNASCDAPFRARLSALLAAEGRDSVRCVFTDVSWNAVLTASSDLGVPALGMMTASAASLRDYMAYRTLIDKGYLPVKEERKEDPVPELPPYLVKDLLRVDTSDLEEFAELLARTVTAARRASGLIFNTFPLIETDTLAEIHKALSVPVFAVAPLNKLVPTATASLHGVVQADRGCLQWLDTQQPGSVLYVSFGSWAAMDPHEFVELAWGLADSKRPFVWVVRPNLIRGFESGALPDGVEDEVRGRGIVVAWAPQEEVLAHPAVGGFLTHNGWNSTVEAISEGVPMVCCPRHGDQFGNMRYVCDVWKVGTELVGEQLERGQVKAAIDRLFGTKEGEEIKERMKEFKIAAAKGIGIGVDVDETASPRTDLTDLVDLIKSF
# modifications: Zea mays
# B5: A432P, M279F: double mutant of bx9 SEQ ID NO:1 (protein)
# chain: MASSRTGAGAGGRVVVFPFPFQGHFNPVMRLARALHARGLAITVFHSGALDPADYPADYRFVPVTVEADPKLLASEDIAAIVTTLNASCDAPFRARLSALLAAEGRDSVRCVFTDVSWNAVLTASSDLGVPALGMMTASAASLRDYMAYRTLIDKGYLPVKEERKEDPVPELPPYLVKDLLRVDTSDLEEFAELLARTVTAARRASGLIFNTFPLIETDTLAEIHKALSVPVFAVAPLNKLVPTATASLHGVVQADRGCLQWLDTQQPGSVLYVSFGSFAAMDPHEFVELAWGLADSKRPFVWVVRPNLIRGFESGALPDGVEDEVRGRGIVVAWAPQEEVLAHPAVGGFLTHNGWNSTVEAISEGVPMVCCPRHGDQFGNMRYVCDVWKVGTELVGEQLERGQVKAAIDRLFGTKEGEEIKERMKEFKIAPAKGIGIGVDVDETASPRTDLTDLVDLIKSF
# modifications: Zea mays
# B6: A334T: bx9 SEQ ID NO:1 mutant (protein)
# chain: MASSRTGAGAGGRVVVFPFPFQGHFNPVMRLARALHARGLAITVFHSGALDPADYPADYRFVPVTVEADPKLLASEDIAAIVTTLNASCDAPFRARLSALLAAEGRDSVRCVFTDVSWNAVLTASSDLGVPALGMMTASAASLRDYMAYRTLIDKGYLPVKEERKEDPVPELPPYLVKDLLRVDTSDLEEFAELLARTVTAARRASGLIFNTFPLIETDTLAEIHKALSVPVFAVAPLNKLVPTATASLHGVVQADRGCLQWLDTQQPGSVLYVSFGSMAAMDPHEFVELAWGLADSKRPFVWVVRPNLIRGFESGALPDGVEDEVRGRGIVVTWAPQEEVLAHPAVGGFLTHNGWNSTVEAISEGVPMVCCPRHGDQFGNMRYVCDVWKVGTELVGEQLERGQVKAAIDRLFGTKEGEEIKERMKEFKIAAAKGIGIGVDVDETASPRTDLTDLVDLIKSF
# modifications: Zea mays
# B7: I78Y: bx9 SEQ ID NO:1 mutant (protein)
# chain: MASSRTGAGAGGRVVVFPFPFQGHFNPVMRLARALHARGLAITVFHSGALDPADYPADYRFVPVTVEADPKLLASEDYAAIVTTLNASCDAPFRARLSALLAAEGRDSVRCVFTDVSWNAVLTASSDLGVPALGMMTASAASLRDYMAYRTLIDKGYLPVKEERKEDPVPELPPYLVKDLLRVDTSDLEEFAELLARTVTAARRASGLIFNTFPLIETDTLAEIHKALSVPVFAVAPLNKLVPTATASLHGVVQADRGCLQWLDTQQPGSVLYVSFGSMAAMDPHEFVELAWGLADSKRPFVWVVRPNLIRGFESGALPDGVEDEVRGRGIVVAWAPQEEVLAHPAVGGFLTHNGWNSTVEAISEGVPMVCCPRHGDQFGNMRYVCDVWKVGTELVGEQLERGQVKAAIDRLFGTKEGEEIKERMKEFKIAAAKGIGIGVDVDETASPRTDLTDLVDLIKSF
# modifications: Zea mays
# Test: UDP luminescence plate assay of E. coli extracts, mutants of SEQ ID No: 1, 2 mM metribuzin
# Format: biochemical, Zea mays
# Conditions: for RATIO: metribuzin signal to DMSO signal / SIGNAL: metribuzin signal of mutant divided by metribuzin signal of w/t bx9 / luminescence signal with metribuzin / SIGNAL: metribuzin signal of mutant divided by the signal of w/t bx9 / luminescence signal observed with 2 mM metribuzin: 2 mM metribuzin; for luminescence signal with metribuzin: H24A null background 1.00E+05 not subtracted; for SIGNAL: metribuzin signal of mutant divided by the signal of w/t bx9: relative to bx9 w/t; for luminescence signal in the DMSO control: mutants of SEQ ID No: 1, DMSO in place of metribuzin (background UDP-glucose hydrolysis); for luminescence signal observed with 2 mM metribuzin: mutants of SEQ ID No: 1 in E. coli extracts, UDP luminescence
# Protocol: Optionally plate assays are stopped with brief heating to 95 C before returning to ice and addition of UDP-Glo detection reagent followed by incubation at lab temperature. […] In addition a UDP standard curve is run alongside each set of plate tests.
# Assays were carried out on extracts of E. coli BL21 DE3 expressing the various C-terminally his-tagged library variants of SEQ ID NO:1 at the amino acid positions listed in Table 11 as described in Example 2 except, in this case, with 2 mM metribuzin in place of herbicide V.
# Thus the ratio of the metribuzin to DMSO signal as well as the increase in signal relative to the w/t bx9 is used to help distinguish those mutations most likely to offer the highest activity to metribuzin. A follow up assay monitored by, for example, LC MS is one method to distinguish these cases more quantitatively.
Molecule,RATIO: metribuzin signal to DMSO signal,SIGNAL: metribuzin signal of mutant divided by metribuzin signal of w/t bx9,luminescence signal with metribuzin,SIGNAL: metribuzin signal of mutant divided by the signal of w/t bx9,luminescence signal in the DMSO control,luminescence signal observed with 2 mM metribuzin
B1,0.97,1.18,1.46E+05,,,
B2,0.96,1.25,1.54E+05,,,
B3,0.94,1.13,1.39E+05,,,
B4,,1.14,1.41E+05,1.26,2.09E+05,3.51E+05
B5,,1.68,2.08E+05,2.52,2.75E+05,7.06E+05
B6,0.95,1.25,1.54E+05,,,
B7,,,,1.23,3.27E+05,3.44E+05
